Results from patent publication US20190375795A1 (CGTX PEPTIDE DEVELOPMENT, published 2019).

Experiments:
[1] = target: T1, Kv1.5 (UniProt P22460 1-613); experiment: planar patch clamp (Port-A-Patch), channel expressed in cells
T1 construct: whole, on cells

[2] = target: human Kv1.3 (hKv1.3) channel (human, UniProt P22001 1-575); experiment: cell-based or functional assay
Sequence of human Kv1.3 (hKv1.3) channel (P22001 whole entry): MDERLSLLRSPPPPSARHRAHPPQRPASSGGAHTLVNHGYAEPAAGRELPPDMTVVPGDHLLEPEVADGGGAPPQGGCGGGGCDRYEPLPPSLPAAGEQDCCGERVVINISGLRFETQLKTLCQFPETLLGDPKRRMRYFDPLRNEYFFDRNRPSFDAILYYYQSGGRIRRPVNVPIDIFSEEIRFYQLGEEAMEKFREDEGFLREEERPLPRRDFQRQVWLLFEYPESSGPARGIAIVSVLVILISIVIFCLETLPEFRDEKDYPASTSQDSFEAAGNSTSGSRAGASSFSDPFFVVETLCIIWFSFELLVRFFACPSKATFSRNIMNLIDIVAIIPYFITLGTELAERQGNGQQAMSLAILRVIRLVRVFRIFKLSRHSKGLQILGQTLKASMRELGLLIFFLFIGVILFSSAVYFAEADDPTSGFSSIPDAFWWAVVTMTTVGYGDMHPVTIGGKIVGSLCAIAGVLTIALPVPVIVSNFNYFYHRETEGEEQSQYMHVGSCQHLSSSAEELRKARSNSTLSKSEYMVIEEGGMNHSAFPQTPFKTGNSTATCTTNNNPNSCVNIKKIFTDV

T1 sequence (P22460 whole entry): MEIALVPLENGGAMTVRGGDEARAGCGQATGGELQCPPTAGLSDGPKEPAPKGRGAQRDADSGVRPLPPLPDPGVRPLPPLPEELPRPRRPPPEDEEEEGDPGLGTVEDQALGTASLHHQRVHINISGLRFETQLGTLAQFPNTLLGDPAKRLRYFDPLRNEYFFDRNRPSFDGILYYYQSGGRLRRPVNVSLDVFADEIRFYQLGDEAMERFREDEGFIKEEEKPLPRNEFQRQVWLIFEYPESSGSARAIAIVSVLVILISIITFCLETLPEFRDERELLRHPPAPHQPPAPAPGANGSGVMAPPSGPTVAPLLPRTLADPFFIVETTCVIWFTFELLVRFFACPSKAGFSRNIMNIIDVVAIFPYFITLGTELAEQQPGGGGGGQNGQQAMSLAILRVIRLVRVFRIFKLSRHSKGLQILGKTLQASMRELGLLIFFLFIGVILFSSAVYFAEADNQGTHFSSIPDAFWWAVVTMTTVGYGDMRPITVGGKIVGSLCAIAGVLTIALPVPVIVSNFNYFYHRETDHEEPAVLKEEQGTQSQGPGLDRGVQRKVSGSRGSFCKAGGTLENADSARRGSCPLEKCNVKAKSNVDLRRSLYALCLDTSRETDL

ASCRTPKDCADPCRKETGCPYGKCMNRKCKCNRC (also called toxin HsTx 1) [HsTx 1]
binding result [1]: no binding
selectivity for Kv1.3 vs. Kv1.1 (patch clamp IC50s) [2]: ~450 fold
